In patent US20040248233A1 (Dana-Farber, published 2004):
Ends that are not written are not given here.

Assays:
[1] = target: T1, pVHL (HA-tagged: 35S-HA-pVHL in vitro translate, or HA-pVHL produced in ts20 and WT8 cells) (UniProt P40337 1-213); assay: biotinylated peptide, pVHL binding
T1 construct: Also used for sentences that say only 'pVHL'; In cell lysates pVHL is in complex with elongin B, elongin C and Cul2; also called 35S-labeled pVHL; HA-VHL; not shown: HA tag

[2] = target: T2, GST-VHL, elongin B, elongin C complexes (GST-VBC), immobilized on glutathione sepharose (UniProt P40337 54-213; Q15370 1-118; Q15369 17-112); assay: capture with immobilized GST-VBC
T2 construct: also called VBC-GST; GST-pVHL, elongin B, elongin C complexes

[3] = target: T1, pVHL (HA-tagged: 35S-HA-pVHL in vitro …); assay: biotinylated peptide on avidin Sepharose, 35S-pVHL

T1 sequence (P40337 whole entry): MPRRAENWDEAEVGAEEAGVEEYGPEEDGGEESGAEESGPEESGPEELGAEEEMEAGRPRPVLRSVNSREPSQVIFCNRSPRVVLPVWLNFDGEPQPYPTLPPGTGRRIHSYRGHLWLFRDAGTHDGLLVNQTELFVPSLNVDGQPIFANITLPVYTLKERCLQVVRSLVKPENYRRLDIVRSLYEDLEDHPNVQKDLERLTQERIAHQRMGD

Binder | binding result [1] | binding result [2] | also measured
DLDLEALAPYIPMDDDFQLR (peptide, UniProt Q16665 556-575, looked up, also: biotinylated (position not given here)) [biotinylated HIF (556-575) peptide with the single substitution Met561 to alanine] | binds |  | 
DLDLEMLAPYIPADDDFQLR (peptide, UniProt Q16665 556-575, looked up, also: biotinylated (position not given here)) [biotinylated HIF (556-575) peptide with the single substitution Met568 to alanine] | binds |  | 
Pro564Ala Gal4-HA-HIF1α (530-652) (other, range 530-652; also called Gal4-ODD Pro564Ala; not shown: Gal4 moiety and HA tag) EFKLELVEKLFAEDTEAKNPFSTQDTDLDLEMLAAYIPMDDDFQLRSFDQLSPLESSSASPESASPQSTVTVFQQTQIQEPTANATTTTATTDELKTVTKDRMEDIKILIASPSPTHIHKETT |  | no binding | 
Leu562Ala Gal4-HA-HIF1α (530-652) (other, range 530-652; also called Gal4-ODD Leu562Ala; not shown: Gal4 moiety and HA tag) EFKLELVEKLFAEDTEAKNPFSTQDTDLDLEMAAPYIPMDDDFQLRSFDQLSPLESSSASPESASPQSTVTVFQQTQIQEPTANATTTTATTDELKTVTKDRMEDIKILIASPSPTHIHKETT |  | no binding | 
DLDLEALAPYIPADDDFQLR (peptide, UniProt Q16665 556-575, looked up, also: biotinylated (position not given here), also called double alanine substitution) [biotinylated HIF (556-575) peptide with Met561 and Met568 converted to alanine] | binds |  | 
DLDLEMLAAYIPMDDDFQLR (peptide, UniProt Q16665 556-575, looked up, also: biotinylated (position not given here)) [biotinylated HIF1α (556-575) peptide Pro564Ala] |  |  | binding result [3]: no binding
